# Test results: US9340577B2, “HLA binding motifs and peptides and their uses” (priority 1992, dated 2016)
# No end group written: not given here.
# Target: HLA-A*0201 (HLA-A2.1) (Homo sapiens, UniProt P04439, D140Y/D185E/D98H/E176V/E277Q/G131W/G231S/I119V/I121R/I166T/I218V/L300P/L318F/N151K/N90K/P208A/P217A/Q86G/Q94H/R138H/R169H/T345S)
# Test: biochemical
# Format: binding
# Conditions: not given
Substance,binding to HLA-A2.1 (column 3; no allele head shown for these rows),IC50 [nM]
LMLGTLEEV,0.13,
KMVELVHFLLL,0.67,
SMHCKPEEV [listing 1 of 2 here],0.018,
LMVTVYYGV,,3.3
LLGDNQIMP,0.0001,
ALAETSYVKVL,0.012,
GLSYDGLLG,0,
AMGLVCVQV,0.012,
WEELSVMEV,0,

# Target: A2.1 HLA molecules (Homo sapiens, UniProt P04439, D140Y/D185E/D98H/E176V/E277Q/G131W/G231S/I119V/I121R/I166T/I218V/L300P/L318F/N151K/N90K/P208A/P217A/Q86G/Q94H/R138H/R169H/T345S)
# Test: not given
# Format: binding
# Parameters: A*0201 / A2.1 Binding / A2 Bind. / A2 / A2.1 (binding capacity): scale not given here
# Conditions: not given
Substance,A2 Bind.,A2,A2.1 relative binding (ratio of binding of test peptide relative to standard peptide),A2.1 Binding,A2.1 (binding capacity),A*0201
LMLGTLEEV,0.1300,,,,,
KMVELVHFLLL,0.6700,,,,,
SMHCKPEEV [listing 1 of 2 here],0.0180,,,,,
LMVTVYYGV,,0.4400,,,,
LLGDNQIMP,,,0.0001,,,
ALAETSYVKVL,0.0120,,,,,
GLSYDGLLG,,,0,,,
AMGLVCVQV,0.0120,,,,,
WEELSVMEV,,,0,,,
HLPDRVHFA,0.0160,,,,,
YLPSALNPV,0.3200,,,,,
PMEAVRHPL,,,,0,,
GLCAVFADV,,,0.030,,,
LLTEVETYV,0.2000,,,,,
SLYSILSPFL,0.2000,,,,,
TLATWVGVNL,0.5700,,,,,
NLEVIHDAL,,,,0,,
SLDSWWTSV [listing 1 of 2 here],0.1000,,,,,
SLRIKRELL,,,,0,,
WLKLLRDAL,,,,0,,
GLCQVFADV,0.0300,,,,,
LLWKGEGAVV,,0.0360,,,,
VLARTFTPV,0.0440,,,0.044,,
LVPFVQWFA,,,0.0031,,,
RLSWPKFAV,,,0.0072,,,
IISAVVGILL,0.0120,,,,,

Substance,A2 Bind.,A2,A2.1 relative binding (ratio of binding of test peptide relative to standard peptide),A2.1 Binding,A2.1 (binding capacity),A*0201
MLLRLSEPAEL,0.1400,,,,,
RMGAVTTEV,0.0200,,,,,
LMLQAGFFLV,,,0.63,,,
GLWCVLFFV,0.4700,,,0.47,,
ELQMMQDWV,,,,0.0001,,
1.0500 (IMAKNBVFCV) [Peptide 1.0500],,,,,0.0088,
WGLLGFAA,,,0.0009,,,
IISCTCPTV,0.0190,,,,,
LLFFWLDRSV,0.6000,,,,,
AMLTACVEV,0.1000,,,0.089,,
ILGLLGFAV [listing 1 of 2 here],0.0600,,,,,
SLYADSPSV,0.3500,,,,,
LLWWITILL,0.4900,,,0.49,,
LLEDWGPCA,0.0180,,,,,
SLQDIEITCVYCKTV,0.0100,,,,,
LLPFVQWFV [listing 1 of 2 here],0.6500,,,,,
FLGLSPTVWV [listing 1 of 2 here],,,0.030,,,
LMPFVQWFV [listing 1 of 2 here],0.8300,,,,,
SLAFSAVPA,0.0340,,,,,
KLWVTVYYGV,0.0150,,,,,
LLPFVQWFV [listing 2 of 2 here],,,0.63,,,
LLFNILGWV [Peptide F127.09],,,,,,1.7000
YLYGVGSAV,0.1600,,,,,
ILGFVFTLTV,0.0550,,,,,
LLGRNSFAV,0.0420,,,,,
RLLTSLFFL,0.3400,,,,,

Substance,A2 Bind.,A2,A2.1 relative binding (ratio of binding of test peptide relative to standard peptide),A2.1 Binding,A2.1 (binding capacity),A*0201
TLMSIVSSL,0.2000,,,,,
LMTLATWVGV,0.6800,,,,,
LLWFHISCLI,0.0130,,,,,
YLLDLQEPV [listing 1 of 2 here],,,0.22,,,
ILGLLGFAV [listing 2 of 2 here],,,0.060,,,
ALHLFKTTV,0.0170,,,,,
KLVALGVNAV [Peptide F124.12],,,,,,0.0200
WMELSVMEV,,,0.041,,,
LLVPFVQWFA,0.2600,,,,,
GLWIRTPPV,,,0.36,,,
ALPPASPSA,0.0710,,,,,
ELKKVSVL,,,,0,,
AMSFTFTTL,,,,0.0005,,
VMVTCLGLS V (VMVTCLGLSV),0.3000,,,,,
ALSLIVNLL,0.0470,,,,,
RMTGGVFLV [listing 1 of 2 here],,,0.15,,,
ELSIFRERL,,,,0.0002,,
KA SEYLQLV,0.0110,,,,,
RMTGGVFLV [listing 2 of 2 here],0.1500,,,,,
LMCRYTPRL,,,,0.0055,,
GLRDCTMLV [Peptide F124.11],,,,,,0.0120
YALTVVWLL,0.0415,,,,,
LMIRGVLEV,0.4500,,,0.45,,
RMRGTFSAPL,0.0110,,,,,
ALMPLYASI,0.0760,,,,,
SLDSWWTSV [listing 2 of 2 here],,,0.10,,,

Substance,A2 Bind.,A2,A2.1 relative binding (ratio of binding of test peptide relative to standard peptide),A2.1 Binding,A2.1 (binding capacity),A*0201
FLGLSPTVWV [listing 2 of 2 here],0.0300,,,,,
FLRVQQKAL,,,,0.0002,,
ILCWGELMTL,0.1900,,,,,
TMELMIRTV,,,,0.0029,,
SLLTEVETYV,0.0650,,,,,
YLCCGITLL,0.0210,,,0.021,,
ALGRNSFEV,0.0570,,,,,
LMLLDYQGMV,,,0.0087,,,
LMFSTSAYL,0.3600,,,,,
LLGANSFEV,0.1100,,,,,
YMFLWGPRV,,,0.22,,,
RLTWRLTWL,,,,0.0052,,
SISGVLWQV [Peptide F124.09],,,,,,0.1400
ALBRWGLLV [Peptide 34.0132],,,,,,0.0960
LLLYYDYSL,0.2800,,,0.28,,
LLGDNQIMV,,,0.043,,,
WLVTNGSYL,0.0180,,,,,
WMWFPSVLL,0.0360,,,0.036,,
VTTEVAFGL,0.0360,,,,,
SLMAFTASV [Peptide F124.10],,,,,,0.1200
TLNIVRDHV,,,,0.0005,,
VVSYVNVNM,0.0100,,,,,
FMWTYLVTL,0.6800,,,,,
1.0187 (HLLVGSSBL) [Peptide 1.0187],,,,0.0018,,
LLCPAGHAV [Peptide F127.06],,,,,,0.0140
SLYNTISVL [Peptide F136.03],,,,,,0.0190

Substance,A2 Bind.,A2,A2.1 relative binding (ratio of binding of test peptide relative to standard peptide),A2.1 Binding,A2.1 (binding capacity),A*0201
AMSRNLFRV,0.1500,,,0.15,,
YLLPRRGPRL,,0.0730,,,,
GLRQLKGAL,,,,0.0001,,
ALMDLLMFS,0.4300,,,,,
GLLGCIITSL,,0.0610,,,,
IIGAETFYV,0.0260,0.0260,,,,
YLLLYFSPV,0.7500,,,0.75,,
SMHCKPEEV [listing 2 of 2 here],,,0.018,,,
SMLSPFLPLV,,,0.97,,,
YLYRLNFCL,0.7200,,,0.72,,
LLTEVETYVL,0.0130,,,,,
YLLDLQEPV [listing 2 of 2 here],0.2200,,,,,
LLGRASFEV,0.2200,,,,,
MMWFVVLTV,0.7600,,,0.76,,
RLPDRVHFA,0.0940,,,,,
ALASCMGLI,0.0110,,,,,
NLWVTVYYGV,0.0160,,,,,
RVSWPKFAV,,,0.0028,,,
RLGRNSFEV,0.0190,,,,,
YLHTLWKAGV,,,0.15,,,
LMPFVQWFV [listing 2 of 2 here],,,0.83,,,
FMQTYLVTL,,,,0.68,,

# Same assay, conditions: Table 152; binding value, unit not given
row,Substance,A*0201
1,KLVALGINAV [Peptide F127.07],0.0700
